Assay results reported in the domain aggregation screens of Martell et al. (2025).

Experiment: soluble fraction after stress (log2 fold change); higher = more stays soluble; pooled small domains, quantitative proteomics
Details: stress: 75 degC
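Note: 20 min heating vs room temperature control held 20 min.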

Sequence	soluble fraction (log2)
HMVQIQDIAFSEFLNELEKGNILDVNIKGDLINGNMLDGKKFKTYAPYDPSLVEKLSKQNVTINVEPVN	0.109
HMVQMKIRAYELEPNDFFIKQNMTYRVMRIQNGMIYAKHLLNSTPITFGAKSMEFVLWTGKYS	-2.21
HMVQQTEEDVIRDMYVEGKIFTIGEEVTDTYTGVTGKIIRRGTNYVTFMSEDGETYKKWLYEIELA	-0.61
HMVRDGDTFVVPKMDRFARNVEDTLHLVRELTERGVIFQMGHTVYDPHDPWSKLFLTFLAAIAEA	0.0785
HMVREVGYNAFLAMLDSGAVKEVARDESEGQITFLATDEKGKERVYKTGIWPDDTLTERLNTAGVEFA	0.351
HMVREVSYDQFLHFVEAKQVGMVYQDGESLMFTLKEDVEKEWGVTAYKTGLWPDANLTDRLLDAGVVFS	-2.32
HMVRGNLAEELLKLREEEGISFQEAGARSGIARSTISQVVNQGLRLKPNQEESLWRVIEEVRGVKER	0.0321
HMVRSEDLIGLQGRITLATDVETRGFVELSVKGSLLRRPALSLKGPLAKNTAVVVTASNDHTLEVEAL	-0.985
HMVRSKLEIVPVPEDAVVKIAGLKRLTYQAYQNEDVPYMVYKNGYEAQSGTVFMDTDKTLTVTLEESP	-0.0399
HMVSAMLLHKKEILNLLAEEPEALHFASLLRAFGGRHIKNELKQIVDDLVRSGEILRLRGNRYTLPGADN	-1.5
HMVSATKAFVNGGNIVVSSPKATRVAVYNVAGQKVAEQAFAGKATIKASDFAKGIYVLKFNDNTVLKLT	-0.955
HMVSDAELTSQATTAITAYPGTSVEVKEGQAHLSGTFATEADKQAAIDALKKIQDVKDVHDMATV	0.152
HMVSDSAELSAFVADVIKENAQAVADYKGGKTNVFGWLMGQIIKKSGGKATPAAAAALLKAELEK	-0.0308
HMVSKQVTVNGIQYYQYTVQKSEGFYAISTKFGVTQDDIILANPSTKEGLRVGQEILIPIKT	-2.62
HMVSLLDWAYKQVRRMLFSGDLPQGQKIVVAQLANQLSISPTPVKEALNRLAVEGLLEAVPRRGFQVR	-0.548
HMVSQELIMLGNRIREYRKERGFSQEILAEKSGVSTNTISRIEGGQMAMSVGILQRIVKALGVDANVMLG	-2.32
HMVSQKPKERELWFREQLELAGLRLDPHAISAINETLGNDTGRFPGIIDTLLSTYGAGKKLSYDDVVMFL	-0.638
HMVSRAFEEETVKRAESGNQEAALFALELAIREIEHSYEKSKIIDYFVSKVRLFLDNGVSLERALGIH	0.196
HMVSRKIENPYWANKEKQHIIAEFFYPDTNKRVTASIMNDGSNRDYEEILRGYSIEQIDANTNRRLEER	0.566
HMVSSEGLASGIERMLVEFGLETDKGRRFAMWSLLYMLGSAPDLDVAFKDPRDREAARTFMDLLDQANA	-1.57
HMVSSVAAISQMIDEKDRYTSEHSHRVAEYARLIGAHMGFAGEELDSLYRSALLHDIGKIAVPDAILNK	-0.627
HMVSTDPVHLFNLGTANRRAGRASEAITSYRKFMEAAPQHPQVPEARAYIHDMEVLLQERQKSEQAASQLS	0.143
HMVSTSVTVTGDLNVRADSRADSDLVGALIPGQTVTRLAVLDNGWSKIRFDDGAGTVVEGYVLSEYLQADG	0.335
HMVSVEINTVERDETFRKMFTSGWKPENRIQALAVEQAKKNGLGRMSEVAGLASFRGIWKQATEQVALEA	-0.213
HMVSVLDHIVGIGAKRRQSLWNHFGTIDKIKAASIDELLKAPGMNRPSAEAVYYFFEAQRQLRGK	-1.22
HMVTEKNALTIEIEDLTKRFGNQRESLLPILQEVQLKHGHISDFAQQEIARLLDIHPVEVYGVVTFFSFLS	-3

Sequence	soluble fraction (log2)
HMVTGSIYERKGIYYAIVSYYVDGRRKQKSVSTGLSVKGNKRRALEFLENLKRTYETKESMENMD	-3.79
HMVTIEEMMDRLLTRVQRAVNMSFSEFSGEAKEKVEVIVSFLALLELVKQGAVDVLQHENFSDIRIENT	-0.661
HMVTKQKKLVLTIIERSHGHLSAEEIFFRAREEMPNIALGTVYRNLNSLTEEGIVRRITLPGTSDRFDT	-2.91
HMVTKTTYAYERLKREIMDGTLGQGEKLVVNAISQRYQVSPMPIREALLKLEQEGLVQSAPHRGAWVHK	-0.776
HMVTNELFGTRLRAFRKEKGLTIEQLAERVGLSPNYLGDIERGKKLPSMATFIRLVNELDISADEL	-1.52
HMVTQVDYGTFLTRIDEGKVKSVEIQDNQIAFTAIDEAGKENIYVTGKVNDPELVDRLLAADIEDFSQVIP	0.0911
HMVTTTEAAKMLLVNAGHDVIKDGLTGASWASNTMKLADADGLLASVATKPNDALPRQYAAQMIYN	0.103
HMVVANTAIKSELQNIVANENKQAPLSDQKIVDQLKQAGFDISRRTVVKYRDALGIPTSRNRKR	-0.28
HMVVEGMQFDRGYLSQYMVTDNEKMVADLENPYILITDKKISNIQEILPLLESILQSSRPLLIIADD	-0.0369
HMVVGYRYVTNVANAVNFRQKPSASSTIITTIPYGTRIGYVEDANSEYARVKYDNMYGYVAKFYLSNYSPP	-3.68
HMVVLNQEQIKFIDHYLQVSKVRYVDVRSELTDHIATAVELKMQDEALDFYEAFKAFIAVNKSQLLQRN	-1.06
HMVVNERIKKLRRSLDLTQQEFADRIGVKRNTIANYEIGRNEPIDSVLELIVREFGVSKQWLLDGTGEMF	-1.43
HMVVPRSFKYEVLAHGGWAGNAQRYQTKEEALHAGLALSRRWTAVEDYRAVPSDDLPNQPAL	-0.231
HMVVPSNPDELKGSFSLAEVASGYGLEVAAILEKAGWPADTDPNVKMRDAANAIGRDSTDIRNAVKALLKS	0.156
HMVVVPPPATPKPGDVTGDNKINGYDLSILLSNWKRPGATLAQGDLNKDGVVNGLDLSIMLLNWG	0.274
HMVVYDAELLLNINPGMSYEEVKEMLGDPGMIIAGNDAENSVYRWSTGGISFMGRFENGALIRKSIISP	-0.862
HMVWNVEQIKRAVDQLPDGYRVVFTLYLFEGYDHREIADILGISEGGSKSQFNRAKSKLKEILTAMS	-2.19
HMVWTAGEVVERIRERVGHPATIRELMQVLTIPPEDRHRFRRRIMQLVEAGELIRIRGNRYGLAD	-2.59
HMVYNGYYAKSFNGYVVILNGDEKTVYEYTQIPIHLLPEDIRSSVMSGYYLENETDLYNFLENYS	-3.24
HMWAVDFVLLDKDDQRIGNAVAYRDDRTKGMDEEVYRTVPEEELYASTGIQKQIFNSIYQLMAWKK	-0.0106
HMWDRFGELDSAEEINRIAAAELREGDIDALKVLAEENGLDKDDVEDYIDRLIDELTTPELAAIGKLDV	0.275
HMWKQISSEAELLPAVRSVIQANPGEAEKLRNGEMAPLEFLTGLVMKKTNGMAVPQIVKTLIKKELKI	0.0414
HMWKSEAGKKIIESLAQKYNKSNAQIILRWHIQMGYIVIPGARSENHIKENINIFDFKLTNEEINNILKLN	-0.242
HMWMTAQDFRNSSLPWSATTSYNEGQSVRVVDGSNTYYYIAIVKTQPGQSPTTHPTSWREVDA	-1.16
HMWNLPDPVVRPEGNVTVYENFKNTVEVLNREADLVLKFLQNEFGTSANIDDTGRARLTGSFSTDRVSSVI	-0.328
HMWSNTAVIDRIRQLHEEGQPISSQSVQVNHKSLYMAAIKRFRGWKRAVEAAGIDYRQIRLR	-2.29

Sequence	soluble fraction (log2)
HMWWTPIILRDALFGVQRFEDFQKNLDVSRATLSSRLTRLVDEGLMEKVEYQQHPVRHEYVLTEKGR	-0.234
HMYAGTWTTESGQWKYRQDDGTYAKGWLQDTDGRWYYFDANGRMLSNTATPDGYQVGEDGAWVNH	-0.338
HMYAMTAEDWIVSGNRKYINDDLQGAIADYTKAIEIDPNYAAIYLVRGKAKYELKNYQGAIEDYTKAIE	-1.29
HMYAPKIETIQVPQDKIREVIGTGGKVIREIVETTGAKIDIGDTGLIKVASSDGEAIRAALDWINSIVAE	0.278
HMYATQLLQLEEMGFFDRAENIRALRATNGNVNAAVERL	-0.202
HMYDASELNKALEEAKKLDLNNYTEESSEALKNAISKAEEALLSKDKETINSALEELNKAMDSL	0.512
HMYDEAAIRKAVMTFVTDNRDERLDLAKISAVLTSKFGNINFDELGYKRFSSFIDSFPELRRNNTFVSLR	-0.883
HMYDFGVILQKLRKEKGFTQEQLARLIHKESSIISRYEKGLQNPTFETVKEFAAIFNVSMDYLAG	-1.49
HMYEGNEFSSTGMFREDILAITAVHPMREDAVTELLARSNESEETLEMMIDEELLRRVAYGNHNYYMRRFR	-0.611
HMYEHLKALRESLGMTQAEFGESVGVAKSTYNNYEIGARDPKSDFWIAVAQRYGVTIDYLMGFSDDPKKT	-1.76
HMYELSDTEWKIIEQVGLGASNKEIAASLHFSEGTIRNYLSVILDKLSLRDRTQLAILYVKMN	-1.11
HMYEPPTEDEKRVLSLLATRESIVRSDVDRLLGVSQSTANRILKQMIEKYLISQEGTGKNTKYIK	-0.263
HMYESAMSDLHARIMSSDDPHGEIYKMLTQSGPEAKYIQDMYNETSIDRGLHPDDDFEDIIDAMVAELDD	-0.68
HMYEVVPNMKGLSYEQAATALRTAGLEPELSDSIYDDKTRPGTVLEQSPRANTKVKPGRTVYLTVNAF	0.0171
HMYFFNTFTQRLFDNPELTQEEAIRQMYPGISGVQTAEKLQENFMADVYIQAAIRQEIVVQLIR	-0.485
HMYGSLGEYELAAVQWIYGKGKITTRELSSLIGKGLTLSSKTLRGLAAKGILEWHGNSKNDPSQFYSLP	-2.42
HMYHADLIGLEARSTAGDKLGEVNAVYNFGAGDLIEIKMTDGNLEMLPFTRQYVPTVSIKDGFIIVQM	-1.32
HMYHIYPVADNDTPKLSADRLEYSLSNALLTNKLLNIDEIKKIYNDVILDKDEDGTLELSFKS	0.127
HMYIDANTALLAKRIQAKNGFLPLSDKSTAEEIYAEFGISKKAFKKALGALYKERLVRIGDEGVVWV	-2.46
HMYINVQNARTIASFRSSLWRMHRDFTNQGYITADGLKTFLEMGKLYEDAGGNDIYHSKLLPEITALEIKY	-2.84
HMYKDVVVPNTVGDSEEKAYQTLSALGLVVNITYDEDASKSDRVVTSQNPTNKTIKEGESVNIVVNKQP	0.573
HMYKIDFAEGDRVIIKGGAFSGLRATVVSLHPEKGMAKIKVYMFGDRETLVDIEVSQLEKDK	-0.785
HMYKTKVDIAYDMLMERITEGVYKPGEKLVITHISKELGISDIPVREAIRRLESEGYVKILPNQGAIVYD	-0.671
HMYLGRKATLLSSISGEKMGNAEVLADGNLMSIYVKSLTGEPLSYGSTVLIIKHSEDQNFYLVQN	-3.54
HMYLQKGISNGKVYLSIVHGYRDPVTKKVRRKTIRSLGYLEDLEKQYADPIKHFEAVVAKMNEEEALE	-1.88
